# Measurements taken from patent US11124550.
# Target: human voltage-gated sodium channel hNav1.1 (hSCN1A) (human) (UniProt P35498)
# Assay: cell-based or functional assay
# recombinant Hm1b (peptide), sequence (P0DOC5 1-34, tags left off): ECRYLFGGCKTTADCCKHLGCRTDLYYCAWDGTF
substance,measurement,value
recombinant Hm1b (peptide),EC50 for evoking sustained currents,18.5 nM
